In US20180360932A1 (OPKO BIOLOGICS, published 2018):

Key:
Experiment in all cases: cell-based or functional assay
[1] = target: Factor X (FX) (UniProt P00742)
[2] = target: MOD-5014 (FVIIa-CTP3, activated Factor VII-CTP-CTP-CTP) (human) (UniProt P08709)
[3] = target: NovoSeven (commercial recombinant human FVIIa) (human) (UniProt P08709)

Sequence of Tissue Factor Pathway Inhibitor (TFPI) (P10646 29-304 limits assumed): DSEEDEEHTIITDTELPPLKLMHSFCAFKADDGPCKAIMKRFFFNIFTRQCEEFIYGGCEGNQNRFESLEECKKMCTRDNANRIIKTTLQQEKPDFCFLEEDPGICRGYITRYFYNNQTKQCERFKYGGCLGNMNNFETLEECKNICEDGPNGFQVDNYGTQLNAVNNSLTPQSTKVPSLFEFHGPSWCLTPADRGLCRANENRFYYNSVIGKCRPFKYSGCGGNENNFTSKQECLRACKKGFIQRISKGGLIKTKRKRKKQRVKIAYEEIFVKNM
Sequence of Factor X (FX) (P00742 41-488 limits assumed): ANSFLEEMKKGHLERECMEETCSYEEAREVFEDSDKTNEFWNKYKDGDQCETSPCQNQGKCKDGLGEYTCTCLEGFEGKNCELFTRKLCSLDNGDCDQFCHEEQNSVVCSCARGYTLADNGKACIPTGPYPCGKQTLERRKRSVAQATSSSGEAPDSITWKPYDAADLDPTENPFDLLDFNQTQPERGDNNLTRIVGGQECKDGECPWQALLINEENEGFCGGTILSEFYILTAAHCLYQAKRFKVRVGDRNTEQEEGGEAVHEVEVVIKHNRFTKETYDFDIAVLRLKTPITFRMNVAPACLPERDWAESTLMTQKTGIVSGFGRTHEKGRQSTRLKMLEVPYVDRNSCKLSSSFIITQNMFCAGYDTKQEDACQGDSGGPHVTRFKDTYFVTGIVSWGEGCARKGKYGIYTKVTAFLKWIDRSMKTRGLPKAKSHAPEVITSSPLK

Q: How did the EC50 of Factor X activation (BIOPHEN FVII chromogenic assay) [1] turn out when “Recombinant human FVIIa (NovoSeven) (from UniProt P08709 61-212; P08709 213-466) (enzyme)” was run?
A: 0.38 ng/mL

Q: How did the % Inhibition of clotting activity, TFPI 0.625 ng/mL [2] turn out when “Tissue Factor Pathway Inhibitor (TFPI) (from UniProt P10646 29-304)” was run?
A: 15%

Q: And the % Inhibition of clotting activity, TFPI 6.25 ng/mL [2]?
A: 15%

Q: And the % Inhibition of clotting activity, TFPI 62.5 ng/mL [2]?
A: 29%

Q: And the % Inhibition of clotting activity, TFPI 625 ng/mL [2]?
A: 80%

Q: And the % Inhibition of clotting activity, TFPI 1250 ng/mL [2]?
A: 89%

Q: What about the Activity (mU/mL), clotting assay, TFPI 0 ng/mL (no inhibitor) [2] of the same substance?
A: 66.8 mU/mL

Q: What about the Activity (mU/mL), clotting assay, TFPI 0.625 ng/mL [2] of the same substance?
A: 56.7 mU/mL

Q: What about the Activity (mU/mL), clotting assay, TFPI 6.25 ng/mL [2] of the same substance?
A: 56.7 mU/mL

Q: And the Activity (mU/mL), clotting assay, TFPI 62.5 ng/mL [2]?
A: 47.4 mU/mL

Q: What about the Activity (mU/mL), clotting assay, TFPI 625 ng/mL [2] of the same substance?
A: 13.2 mU/mL

Q: What about the Activity (mU/mL), clotting assay, TFPI 1250 ng/mL [2] of the same substance?
A: 7.3 mU/mL

Q: What about the FX activation by MOD-5014 (0.7 ng/ml) + 1 U/µl heparin, TFPI 0.002048 ng/ml [2] of the same substance?
A: 1.27

Q: And the FX activation by MOD-5014 (0.7 ng/ml) + 1 U/µl heparin, TFPI 0.010240 ng/ml [2]?
A: 1.29

Q: And the FX activation by MOD-5014 (0.7 ng/ml) + 1 U/µl heparin, TFPI 0.051200 ng/ml [2]?
A: 1.35

Q: And the FX activation by MOD-5014 (0.7 ng/ml) + 1 U/µl heparin, TFPI 1.28 ng/ml [2]?
A: 1.26

Q: And the FX activation by MOD-5014 (0.7 ng/ml) + 1 U/µl heparin, TFPI 6.40 ng/ml [2]?
A: 1.16

Q: And the FX activation by MOD-5014 (0.7 ng/ml) + 1 U/µl heparin, TFPI 32.00 ng/ml [2]?
A: 0.915

Q: What about the FX activation by MOD-5014 (0.7 ng/ml) + 1 U/µl heparin, TFPI 160.00 ng/ml [2] of the same substance?
A: 0.539

Q: What about the FX activation by MOD-5014 (0.7 ng/ml) + 1 U/µl heparin, TFPI 800.00 ng/ml [2] of the same substance?
A: 0.32

Q: What about the FX activation by MOD-5014 (0.7 ng/ml) + 1 U/µl heparin, TFPI 4000.00 ng/ml [2] of the same substance?
A: 0.115

Q: And the FX activation by MOD-5014 (0.7 ng/ml) + 1 U/µl heparin, TFPI 20000.00 ng/ml [2]?
A: 0.15

Q: And the FX activation by MOD-5014 (0.7 ng/ml), Control [2]?
A: 1.37

Q: And the FX activation by MOD-5014 (4 ng/ml), Control (no TFPI) [2]?
A: 1.58

Q: And the FX activation by MOD-5014 (4 ng/ml), TFPI 0.002048 ng/ml [2]?
A: 1.65

Q: What about the FX activation by MOD-5014 (4 ng/ml), TFPI 0.010240 ng/ml [2] of the same substance?
A: 1.64

Q: What about the FX activation by MOD-5014 (4 ng/ml), TFPI 0.051200 ng/ml [2] of the same substance?
A: 1.6

Q: And the FX activation by MOD-5014 (4 ng/ml), TFPI 0.2560 ng/ml [2]?
A: 1.62

Q: What about the FX activation by MOD-5014 (4 ng/ml), TFPI 1.28 ng/ml [2] of the same substance?
A: 1.56

Q: What about the FX activation by MOD-5014 (4 ng/ml), TFPI 6.40 ng/ml [2] of the same substance?
A: 1.54

Q: And the FX activation by MOD-5014 (4 ng/ml), TFPI 32.00 ng/ml [2]?
A: 1.47

Q: What about the FX activation by MOD-5014 (4 ng/ml), TFPI 160.00 ng/ml [2] of the same substance?
A: 1.14

Q: What about the FX activation by MOD-5014 (4 ng/ml), TFPI 800.00 ng/ml [2] of the same substance?
A: 0.836

Q: And the FX activation by MOD-5014 (4 ng/ml), TFPI 4000.00 ng/ml [2]?
A: 0.38

Q: And the FX activation by MOD-5014 (4 ng/ml), TFPI 20000.00 ng/ml [2]?
A: 0.17

Q: What about the O.D, FX activation by MOD-5014 (0.69 ng/ml), Control (no TFPI) [2] of the same substance?
A: 1.51 O.D

Q: What about the O.D, FX activation by MOD-5014 (0.69 ng/ml), TFPI 0.002048 ng/ml [2] of the same substance?
A: 1.48 O.D

Q: And the O.D, FX activation by MOD-5014 (0.69 ng/ml), TFPI 0.010240 ng/ml [2]?
A: 1.45 O.D

Q: What about the O.D, FX activation by MOD-5014 (0.69 ng/ml), TFPI 0.051200 ng/ml [2] of the same substance?
A: 1.45 O.D

Q: What about the O.D, FX activation by MOD-5014 (0.69 ng/ml), TFPI 0.2560 ng/ml [2] of the same substance?
A: 1.46 O.D

Q: And the O.D, FX activation by MOD-5014 (0.69 ng/ml), TFPI 1.28 ng/ml [2]?
A: 1.39 O.D

Q: And the O.D, FX activation by MOD-5014 (0.69 ng/ml), TFPI 6.40 ng/ml [2]?
A: 1.38 O.D

Q: And the O.D, FX activation by MOD-5014 (0.69 ng/ml), TFPI 32.00 ng/ml [2]?
A: 1.36 O.D

Q: What about the O.D, FX activation by MOD-5014 (0.69 ng/ml), TFPI 160.00 ng/ml [2] of the same substance?
A: 1.11 O.D

Q: And the O.D, FX activation by MOD-5014 (0.69 ng/ml), TFPI 800.00 ng/ml [2]?
A: 1.01 O.D

Q: What about the O.D, FX activation by MOD-5014 (0.69 ng/ml), TFPI 4000.00 ng/ml [2] of the same substance?
A: 0.691 O.D

Q: And the O.D, FX activation by MOD-5014 (0.69 ng/ml), TFPI 20000.00 ng/ml [2]?
A: 0.346 O.D

Q: And the % Inhibition of clotting activity, TFPI 0.625 ng/mL [3]?
A: 25%

Q: And the % Inhibition of clotting activity, TFPI 6.25 ng/mL [3]?
A: 24%

Q: What about the % Inhibition of clotting activity, TFPI 62.5 ng/mL [3] of the same substance?
A: 38%

Q: And the % Inhibition of clotting activity, TFPI 625 ng/mL [3]?
A: 87%

Q: And the % Inhibition of clotting activity, TFPI 1250 ng/mL [3]?
A: 96%

Q: What about the Activity (mU/mL), clotting assay, TFPI 0 ng/mL (no inhibitor) [3] of the same substance?
A: 72.3 mU/mL

Q: What about the Activity (mU/mL), clotting assay, TFPI 0.625 ng/mL [3] of the same substance?
A: 54.5 mU/mL

Q: And the Activity (mU/mL), clotting assay, TFPI 6.25 ng/mL [3]?
A: 55.3 mU/mL

Q: What about the Activity (mU/mL), clotting assay, TFPI 62.5 ng/mL [3] of the same substance?
A: 45 mU/mL

Q: What about the Activity (mU/mL), clotting assay, TFPI 625 ng/mL [3] of the same substance?
A: 9.5 mU/mL

Q: What about the Activity (mU/mL), clotting assay, TFPI 1250 ng/mL [3] of the same substance?
A: 2.9 mU/mL

Q: And the FX activation by NovoSeven (0.7 ng/ml) + 1 U/µl heparin, TFPI 0.002048 ng/ml [3]?
A: 1.33

Q: And the FX activation by NovoSeven (0.7 ng/ml) + 1 U/µl heparin, TFPI 0.010240 ng/ml [3]?
A: 1.3

Q: And the FX activation by NovoSeven (0.7 ng/ml) + 1 U/µl heparin, TFPI 0.051200 ng/ml [3]?
A: 1.37

Q: What about the FX activation by NovoSeven (0.7 ng/ml) + 1 U/µl heparin, TFPI 1.28 ng/ml [3] of the same substance?
A: 1.31

Q: And the FX activation by NovoSeven (0.7 ng/ml) + 1 U/µl heparin, TFPI 6.40 ng/ml [3]?
A: 1.21

Q: And the FX activation by NovoSeven (0.7 ng/ml) + 1 U/µl heparin, TFPI 32.00 ng/ml [3]?
A: 1.01

Q: What about the FX activation by NovoSeven (0.7 ng/ml) + 1 U/µl heparin, TFPI 160.00 ng/ml [3] of the same substance?
A: 0.764

Q: What about the FX activation by NovoSeven (0.7 ng/ml) + 1 U/µl heparin, TFPI 800.00 ng/ml [3] of the same substance?
A: 0.409

Q: And the FX activation by NovoSeven (0.7 ng/ml) + 1 U/µl heparin, TFPI 4000.00 ng/ml [3]?
A: 0.241

Q: What about the FX activation by NovoSeven (0.7 ng/ml) + 1 U/µl heparin, TFPI 20000.00 ng/ml [3] of the same substance?
A: 0.222

Q: And the FX activation by NovoSeven (0.7 ng/ml), Control [3]?
A: 1.47

Q: And the FX activation by NovoSeven (4 ng/ml), Control (no TFPI) [3]?
A: 1.66

Q: What about the FX activation by NovoSeven (4 ng/ml), TFPI 0.002048 ng/ml [3] of the same substance?
A: 1.72

Q: What about the FX activation by NovoSeven (4 ng/ml), TFPI 0.010240 ng/ml [3] of the same substance?
A: 1.7

Q: What about the FX activation by NovoSeven (4 ng/ml), TFPI 0.051200 ng/ml [3] of the same substance?
A: 1.73

Q: What about the FX activation by NovoSeven (4 ng/ml), TFPI 0.2560 ng/ml [3] of the same substance?
A: 1.7

Q: And the FX activation by NovoSeven (4 ng/ml), TFPI 1.28 ng/ml [3]?
A: 1.66

Q: And the FX activation by NovoSeven (4 ng/ml), TFPI 6.40 ng/ml [3]?
A: 1.59

Q: And the FX activation by NovoSeven (4 ng/ml), TFPI 32.00 ng/ml [3]?
A: 1.5

Q: What about the FX activation by NovoSeven (4 ng/ml), TFPI 160.00 ng/ml [3] of the same substance?
A: 1.34

Q: What about the FX activation by NovoSeven (4 ng/ml), TFPI 800.00 ng/ml [3] of the same substance?
A: 1.02

Q: What about the FX activation by NovoSeven (4 ng/ml), TFPI 4000.00 ng/ml [3] of the same substance?
A: 0.406

Q: What about the FX activation by NovoSeven (4 ng/ml), TFPI 20000.00 ng/ml [3] of the same substance?
A: 0.206

Q: And the O.D, FX activation by NovoSeven (0.64 ng/ml), Control (no TFPI) [3]?
A: 1.51 O.D

Q: What about the O.D, FX activation by NovoSeven (0.64 ng/ml), TFPI 0.002048 ng/ml [3] of the same substance?
A: 1.5 O.D

Q: What about the O.D, FX activation by NovoSeven (0.64 ng/ml), TFPI 0.010240 ng/ml [3] of the same substance?
A: 1.51 O.D

Q: And the O.D, FX activation by NovoSeven (0.64 ng/ml), TFPI 0.051200 ng/ml [3]?
A: 1.52 O.D

Q: What about the O.D, FX activation by NovoSeven (0.64 ng/ml), TFPI 0.2560 ng/ml [3] of the same substance?
A: 1.43 O.D

Q: And the O.D, FX activation by NovoSeven (0.64 ng/ml), TFPI 1.28 ng/ml [3]?
A: 1.47 O.D

Q: What about the O.D, FX activation by NovoSeven (0.64 ng/ml), TFPI 6.40 ng/ml [3] of the same substance?
A: 1.42 O.D

Q: What about the O.D, FX activation by NovoSeven (0.64 ng/ml), TFPI 32.00 ng/ml [3] of the same substance?
A: 1.38 O.D

Q: And the O.D, FX activation by NovoSeven (0.64 ng/ml), TFPI 160.00 ng/ml [3]?
A: 1.34 O.D

Q: And the O.D, FX activation by NovoSeven (0.64 ng/ml), TFPI 800.00 ng/ml [3]?
A: 1.04 O.D

Q: And the O.D, FX activation by NovoSeven (0.64 ng/ml), TFPI 4000.00 ng/ml [3]?
A: 0.83 O.D

Q: And the O.D, FX activation by NovoSeven (0.64 ng/ml), TFPI 20000.00 ng/ml [3]?
A: 0.429 O.D
